For experiment [1], the target named is caseins (casein fraction of whole bovine milk). As to the kind of experiment: co-sedimentation of bLF with the casein pellet of whole cow milk (centrifugation only, no addition), bLF read by competitive inhibition RIA.
In experiment [2] the target is human serum albumin immobilized on Sepharose (human) (UniProt P02768). As to the kind of experiment: 125I-hLF retained on HSA-Sepharose, +0.2% Tween-20 +0.1% Polybrene.
For experiment [3] the target is unchanged. The experiment in a line: 125I-hLF retained on HSA-Sepharose, +0.2% Tween-20 +0.25 M NaCl.
For experiment [4] the target is unchanged. As to the kind of experiment: 125I-hLF retained on HSA-Sepharose, +0.2% Tween-20.
For experiment [5] the target is unchanged. The experiment in a line: 125I-hLF retained on HSA-Sepharose, 10 mM sodium phosphate, 0.15M NaCl, pH 7.4, no addition.
For experiment [6] the target is unchanged. The experiment in a line: 125I-hLF retained on HSA-Sepharose, +0.2% Tween-20 +2 M NaCl.
For experiment [7] the target is unchanged. As to the kind of experiment: 125I-hLF retained on HSA-Sepharose, +0.2% Tween-20 +0.5 M NaCl.

With “bovine lactoferrin (from UniProt P24627)”, in experiment [1], the % of total bLF found in casein fraction worked out at 21%.
Regarding “125I-labelled human lactoferrin (from UniProt P02788)”, the percentage binding in experiment [2] was determined as 4%; in experiment [3], 4%; in experiment [4], 9%; in experiment [5], 8%; in experiment [6], 4%; in experiment [7], 3%.

For the origin of these results see patent US5861491.
